Experiments:
[1] = test system: PCV2-infected PK-15 cells; experiment: Number of PCV2-infected PK-15 cells (IPMA) after treatment with cytokines or natural cytokine sources; type: cell-based, Porcine circovirus 2; settings: for increase in PCV2-positive cells / lowest concentration inducing a significant effect on PCV2-positive cells: PK-15
Method: PK-15 cells were seeded and maintained in culture medium containing 5%-10% fetal bovine serum (FBS), 0.3 mg/ml glutamine, 100 U/ml penicillin, 0.1 mg/ml streptomycin, 0.1 mg/ml kanamycin dissolved in minimal essential medium (MEM) (Gibco BRL®, Grand Island, USA) or dissolved in RPMI-1640 (GIBCO BRL®, Grand Island, USA) containing 1% nonessential amino acids (100×; GIBCO BRL®, Grand Island, USA) and 1 mM sodium pyruvate (GIBCO BRL®, Grand Island, USA). Cells were seeded at a concentration of 150,000 cells per ml of medium. For the detection of total viral antigen positive cells, the cells were seeded in 96-well microtiter plates (Nunc) (15,000-20,000 cells per well). To detect the expression of specific viral antigens, cells were seeded on sterile cover slips in Leighton tubes (150,000 cells per tube) and finally progeny virus production assays were performed in 24-well plates containing […].
In order to use cells, more related to the target cells in vivo, the monocytic cell line 3D4/31 was used to confirm the effect of the different cytokines on the number of PCV2-infected cells. The 3D4/31 cell line is a porcine monomyeloid cell lines that was established following transfection of primary porcine alveolar macrophage cultures with plasmid pSV3neo, carrying genes for neomycin resistance and SV40 large T antigen. (Weingartl et al. (2002) J Virol Methods. 10, 203-216). These cells were maintained in a 1:1 mixture of RPMI-1640 (Invitrogen) and DMEM (Invitrogen) supplemented with 10% fetal bovine serum, 0.3 mg/ml glutamine, 100 U/ml penicillin, 0.1 mg/ml streptomycin, 0.1 mg/ml kanamycin and 1% non-essential amino acids 100× (GIBCO BRL®, Grand Island, USA). These experiments were also performed in 96-well plates containing the same number of cells. Furthermore, to monitor the effect of IFN-gamma on the entry of PCV2 virion-like particles was determined, 3D4/31 cells were seeded at 2×10^5 cells/ml of medium onto microscopic slides mounted with an 8 well cell culture silicone chamber (Vivascience AG, Hanover). In all inoculations, the same PCV2-strain (Stoon-1010) was used at a multiplicity of infection of 0.01. The virus was diluted in MEM and inoculated on the cell cultures by incubating cells and virus for 1 hour at 37° C. After 1 hour, the inoculum was removed, the cultures were washed twice with MEM and new culture medium was added.
The influence of the cytokines on the infection of PCV2 in PK-15 and 3D4/31 cells was determined by adding two-fold-dilution series of the cytokines to the medium of the cells before, during or after the inoculation. IL-1, IL-6, […] and IFN-alpha were used in concentrations ranging from 0.25-250 Units/ml (U/ml), IFN-gamma was used in concentrations ranging from 0.25-1000 U/ml and IL-10 was used in concentrations from 0.13-125 U/ml. Cell cultures were either pre-treated with the cytokines for 24 hours before inoculation, treated during the inoculation or the cytokines were added in the medium after the inoculation. After 36 hours of incubation at 37° C. in an environment supplemented with 5% CO2, the cells were fixed by drying and frozen at −20° C. The plates were stained with an immuno-peroxydase monolayer assay (IPMA) as described by Sanchez et al. (2003, Vet Microbiol 95, 15-25) and the number of PCV2-positive cells was counted by light microscopy. In each plate a control was inoculated with an equal dose of mock-treated PCV2 (treated with MEM without cytokines). The number of infected cells in this well was used as the reference and all results were expressed as a ratio to this reference.
Two-fold dilutions of the BAL-fluids of the PRCV and mock-inoculated pigs were added to the medium of PCV2-inoculated PK-15 cells after inoculation. Concentrations of the added BAL-fluids ranged from 1.25 to 5%. Supernatants of ConA and mock-stimulated PBMC's were also added to the culture medium of PK-15 cells after inoculation in concentrations ranging from […] to 50%. […]

[2] = test system: PCV2 strain Stoon-1010 in PK-15 cells; experiment: Progeny PCV2 production in PK-15 cells with acidification inhibitors and/or IFN-gamma; type: cell-based, Porcine circovirus 2; settings: IFN-gamma 500 U/ml pre-treatment
Method: For progeny virus production assays, 2×10^5 cells were seeded in every well of 24-well cell culture plates. Cells were pre-treated with or without 500 U/ml IFN-gamma at 6 hours post seeding. At 24 h post-seeding, cells were washed and inoculated with the prototype PCV2 strain Stoon-1010 at an m.o.i. of 0.3 for 1 hour at 37° C. The viral inoculum was washed-off and cells were further incubated in 1 ml of culture medium with or without 25 mM ammonium chloride, 125 μM chloroquine diphosphate and/or 6 μM monensin for 24 hours. Then, the culture medium with or without endosomal-lysosomal system acidification inhibitors was replaced with fresh culture medium without inhibitors. At 1, 24, 48 and 72 hours post-inoculation the supernatant was collected. Subsequently the culture was washed once with 1 ml PBS. Both the supernatant and the washing fluid were centrifuged for 10 minutes at 15,000×g to pellet cells and debris. The centrifuged supernatant and washing fluids were combined and considered to contain the extracellular virus. Both pellets and cell cultures were freeze-thawed three times and considered to contain the intracellular virus. Intra- and extracellular virus titres were determined by titration on PCV-negative PK-15 cells as described previously. Viral antigens were detected using an IPMA as described above and PCV2 titre was expressed as log10 TCID50 per 10^5 cells.

[3] = test system: PCV2 (field strain Imp-1121); experiment: PCV2 replication in inoculated pigs given IFN-gamma or ConA; type: in vivo; settings: pigs inoculated at 19 days of age; samples 10, 15, 21 days post inoculation
Method: Pigs are inoculated with PCV2 (field strain Imp-1121) at 19 days of age. These inoculated pigs are divided in 3 groups. One group contains control pigs (only PCV2). The second group of pigs receives recombinant IFN-gamma (100,000 U per pig every three days). The third group contains pigs that receive ConA (1.5 mg/kg every three days). At different times post inoculation (10, 15, 21 days) samples are collected and the replication of the virus is assessed.

B1: IFN-gamma: Porcine interferon gamma purchased from R&D systems (protein, UniProt P17803 24-166, looked up)
Interferon gamma: QAPFFKEITILKDYFNASTSDVPNGGPLFLEILKNWKEESDKKIIQSQIVSFYFKFFEIFKDNQAIQRSMDVIKQDMFQRFLNGSSGKLNDFEKLIKIPVDNLQIQRKAISELIKVMNDLSPRSNLRKRKRSQTMFQGQRASK
increase in PCV2-positive cells ([1]; 1000 U/ml added after inoculation): 791±105% | increase in PCV2-positive cells ([1]; 1000 U/ml added before inoculation): 518±134% | increase in PCV2-positive cells ([1]; 1000 U/ml added during inoculation): 270±57% | lowest concentration inducing a significant effect on PCV2-positive cells ([1]; administered after inoculation): 2 U/ml | lowest concentration inducing a significant effect on PCV2-positive cells ([1]; administered before inoculation): 16 U/ml | lowest concentration inducing a significant effect on PCV2-positive cells ([1]; administered during inoculation): 2 U/ml | change in the number of PCV2-positive cells (in words) ([1]; PK-15 cells, cytokine dilution series, before, during or after inoculation, 36 h): dose-dependent increase | PCV2 titres at 1 hpi ([2]; 1 hpi): 2.0 TCID50 per 10^5 cells | PCV2 titres at 24 hpi ([2]; 24 hpi): 2.1 TCID50 per 10^5 cells | PCV2 titres at 48 hpi ([2]; 48 hpi): 3.4 TCID50 per 10^5 cells | PCV2 titres at 72 hpi ([2]; 72 hpi): 3.9 TCID50 per 10^5 cells | replication of PCV2 compared to control pigs (in words) [3]: increase in the replication of PCV2

From patent US9119806B2, “Culturing circular ssDNA viruses for the production of vaccines” (priority 2007, dated 2015)
